Substitutions are numbered along the chain they refer to. Values belong to the binder of their own block, whether it stands above or below them.
What was measured:
[1] = biological target: T1, B7H3 (antigen of the affinity statements) (human, UniProt Q5ZPR3 29-466, limits assumed); test: monovalent affinity in 1+1 bsAb format (Example 2B)
T1 construct: also called CD276
T1 sequence (looked up): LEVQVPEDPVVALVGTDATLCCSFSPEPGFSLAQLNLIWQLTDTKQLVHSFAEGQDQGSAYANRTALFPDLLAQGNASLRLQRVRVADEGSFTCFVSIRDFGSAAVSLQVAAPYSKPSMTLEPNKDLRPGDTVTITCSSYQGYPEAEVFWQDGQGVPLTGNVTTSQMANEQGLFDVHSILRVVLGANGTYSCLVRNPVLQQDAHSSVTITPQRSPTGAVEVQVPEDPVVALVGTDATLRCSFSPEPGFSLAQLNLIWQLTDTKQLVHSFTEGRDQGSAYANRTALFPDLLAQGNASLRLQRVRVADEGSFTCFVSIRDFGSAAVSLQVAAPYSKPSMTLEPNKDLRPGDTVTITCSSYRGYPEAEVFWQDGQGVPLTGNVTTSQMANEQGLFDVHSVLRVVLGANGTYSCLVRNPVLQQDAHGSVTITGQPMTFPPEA

[2] = biological target: T2, CD28 (antigen of the affinity determinations) (human, UniProt P10747 19-152, limits assumed); test: binding affinity of the CD28 binding domain; method not given
T2 construct: also called human CD28

[3] = biological target: T3, mouse Fc fusion of B7H3, full extracellular V1C1-V2C2 domain (human, UniProt Q5ZPR3 29-466); test: Octet (BLI), B7H3 mouse Fc fusions on anti-mouse Fc biosensors, 1:1 Langmuir fit
T3 construct: extracellular domain; Fusions of the single V1C1 and V2C2 domains were tested as well; also called B7H3 antigen; printed 'V1C1-V2V2'; not shown: mouse Fc
T3 sequence (looked up): T1 sequence (looked up)
Excerpt: To investigate whether the difference observed for XENP34339 resulted from the difference in B7H3 binding domain or the difference in bispecific antibody format, the component binding domains of XENP34339 and XENP34389 were biophysically characterized using Octet. […] Anti-mouse Fc biosensors were used to capture mouse Fc fusions of B7H3, either the full extracellular V1C1-[…] domain or the individual V1C1 or V2C2 domains, and dipped into multiple concentrations of XENP34717 or XENP34728. Kinetic analyses were performed by global fitting of binding data with a 1:1 Langmuir binding model. […] Next, the binding affinities of the CD28 binding domains for CD28 antigen in the 2+1 CLC format and the 2+1 Fab2-scFv-Fc format was investigated. Anti-HIS capture (HIS1K) biosensors were used to capture CD28-Fc-His protein and dipped into multiple concentrations of XENP34339 or XENP34389. Kinetic analyses were performed by global fitting of binding data with a 1:1 Langmuir binding model as well as steady state model. The resulting dissociation constant (KD) are depicted in FIG. 53.

binding result [3]: binds
B4: XENP34717 (bispecific antibody)
heavy 1: EVQLLESGGGLVQPGGSLRLSCAASGFTFSSYYMSWVRQAPGKGLEWVSTISESGDSTYYADSVKGRFTISRDNSKNTLYLQMNSLRAEDTAVYYCAKSGPGLRQVGFDYWGQGTLVTVSSASTKGPSVFPLAPSSKSTSGGTAALGCLVKDYFPEPVTVSWNSGALTSGVHTFPAVLQSSGLYSLSSVVTVPSSSLGTQTYICNVNHKPSDTKVDKKVEPKSCDKTHTCPPCPAPPVAGPSVFLFPPKPKDTLMISRTPEVTCVVVDVKHEDPEVKFNWYVDGVEVHNAKTKPREEEYNSTYRVVSVLTVLHQDWLNGKEYKCKVSNKALPAPIEKTISKAKGQPREPQVYTLPPSREEMTKNQVSLTCDVSGFYPSDIAVEWESDGQPENNYKTTPPVLDSDGSFFLYSKLTVDKSRWEQGDVFSCSVMHEALHNHYTQKSLSLSPGK
heavy 2: QVQLVQSGAEVKKPGASVKVSCKASGYIFTNNYMHWVRQAPGQGLEWMGIISPSVGRTAYAQKFQGRVTMTRDTSTSTVYMELSSLRSEDTAVYYCARGGGSSPRLDYWGQGTLVTVSSASTKGPSVFPLAPSSKSTSGGTAALGCLVKDYFPEPVTVSWNSGALTSGVHTFPAVLQSSGLYSLSSVVTVPSSSLGTQTYICNVNHKPSNTKVDKKVEPKSCDKTHTCPPCPAPPVAGPSVFLFPPKPKDTLMISRTPEVTCVVVDVKHEDPEVKFNWYVDGVEVHNAKTKPREEQYNSTYRVVSVLTVLHQDWLNGKEYKCKVSNKALPAPIEKTISKAKGQPREPQVYTLPPSREQMTKNQVKLTCLVKGFYPSDIAVEWESNGQPENNYKTTPPVLDSDGSFFLYSKLTVDKSRWQQGNVFSCSVMHEALHNHYTQKSLSLSPGK
light: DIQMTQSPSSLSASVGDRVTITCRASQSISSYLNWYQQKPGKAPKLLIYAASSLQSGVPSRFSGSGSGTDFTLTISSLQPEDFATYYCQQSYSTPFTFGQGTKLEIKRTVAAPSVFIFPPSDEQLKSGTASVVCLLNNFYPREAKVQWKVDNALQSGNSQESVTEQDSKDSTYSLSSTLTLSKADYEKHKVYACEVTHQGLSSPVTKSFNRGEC
notes: copies: 1 + 1 + 2

binding result [1]: binds
B8: XENP35153 (bispecific antibody)
heavy: EVQLLESGGGLVQPGGSLRLSCAVSGFSLSSYGVIWVRQAPGKGLEYVSWVSSGGSTNYASSVKGRFTISRDTSKNTVYLQMNSLRAEDTAVYFCARGATNSGTDIWGPGTLVTVSSASTKGPSVFPLAPSSKSTSGGTAALGCLVKDYFPEPVTVSWNSGALTSGVHTFPAVLQSSGLYSLSSVVTVPSSSLGTQTYICNVNHKPSDTKVDKKVEPKSCDKTHTCPPCPAPPVAGPSVFLFPPKPKDTLMISRTPEVTCVVVDVKHEDPEVKFNWYVDGVEVHNAKTKPREEEYNSTYRVVSVLTVLHQDWLNGKEYKCKVSNKALPAPIEKTISKAKGQPREPQVYTLPPSREEMTKNQVSLTCDVSGFYPSDIAVEWESDGQPENNYKTTPPVLDSDGSFFLYSKLTVDKSRWEQGDVFSCSVLHEALHSHYTQKSLSLSPGK
scFv-Fc: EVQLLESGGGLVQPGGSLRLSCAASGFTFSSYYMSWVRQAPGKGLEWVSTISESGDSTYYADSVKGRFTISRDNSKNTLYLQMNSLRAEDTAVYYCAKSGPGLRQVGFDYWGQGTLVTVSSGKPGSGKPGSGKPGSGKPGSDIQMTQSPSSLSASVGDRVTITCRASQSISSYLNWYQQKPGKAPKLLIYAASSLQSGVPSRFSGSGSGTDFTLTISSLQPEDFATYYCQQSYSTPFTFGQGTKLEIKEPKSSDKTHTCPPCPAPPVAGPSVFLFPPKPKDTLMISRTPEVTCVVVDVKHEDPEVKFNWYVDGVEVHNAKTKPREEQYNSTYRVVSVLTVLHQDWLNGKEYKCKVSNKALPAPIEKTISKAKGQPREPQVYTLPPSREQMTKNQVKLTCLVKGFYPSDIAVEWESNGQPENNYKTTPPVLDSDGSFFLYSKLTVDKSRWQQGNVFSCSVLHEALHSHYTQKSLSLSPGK
light: DIVMTQSPSSLSASVGDRVTITCRASQSINSWLSWYQQKPGKPPKLLIYGASNLASGVPSRFKGSGSGTDFTLTISSLQPEDFATYYCQNNYGIIAAGATFGGGTKVEIKRTVAAPSVFIFPPSDEQLKSGTASVVCLLNNFYPREAKVQWKVDNALQSGNSQESVTEQDSKDSTYSLSSTLTLSKADYEKHKVYACEVTHQGLSSPVTKSFNRGEC
notes: 1+1 Fab-scFv-Fc; copies: 1 + 1 + 1

The next lines start with the binder.

B1: XENP34732 (bispecific antibody)
heavy: EVQLLESGGGLVQPGGSLRLSCAASGFTFSNYYMAWVRQAPGKGLEWVSSISTGGGSTYYRDSVKGRFTISRDNSKSTLYLQMNSLRAEDTAVYYCTTDLSAIAATPFAYWGQGTLVTVSSASTKGPSVFPLAPSSKSTSGGTAALGCLVKDYFPEPVTVSWNSGALTSGVHTFPAVLQSSGLYSLSSVVTVPSSSLGTQTYICNVNHKPSDTKVDKKVEPKSCDKTHTCPPCPAPPVAGPSVFLFPPKPKDTLMISRTPEVTCVVVDVKHEDPEVKFNWYVDGVEVHNAKTKPREEEYNSTYRVVSVLTVLHQDWLNGKEYKCKVSNKALPAPIEKTISKAKGQPREPQVYTLPPSREEMTKNQVSLTCDVSGFYPSDIAVEWESDGQPENNYKTTPPVLDSDGSFFLYSKLTVDKSRWEQGDVFSCSVLHEALHSHYTQKSLSLSPGK
scFv-Fc: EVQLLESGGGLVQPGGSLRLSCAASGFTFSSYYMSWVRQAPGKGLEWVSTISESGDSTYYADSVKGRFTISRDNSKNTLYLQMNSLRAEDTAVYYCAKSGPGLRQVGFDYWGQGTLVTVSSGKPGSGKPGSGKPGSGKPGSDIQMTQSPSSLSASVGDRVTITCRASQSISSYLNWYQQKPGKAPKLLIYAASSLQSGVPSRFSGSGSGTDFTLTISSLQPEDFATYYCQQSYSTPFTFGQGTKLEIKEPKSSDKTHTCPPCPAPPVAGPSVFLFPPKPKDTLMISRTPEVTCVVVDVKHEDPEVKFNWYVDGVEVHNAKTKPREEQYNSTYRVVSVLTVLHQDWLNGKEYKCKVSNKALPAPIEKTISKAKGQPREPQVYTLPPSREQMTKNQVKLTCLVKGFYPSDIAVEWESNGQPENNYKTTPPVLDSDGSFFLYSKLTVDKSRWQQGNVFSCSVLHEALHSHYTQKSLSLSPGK
light: DIQMTQSPSSLSASVGDRVTITCRASQNIYTSLAWYQQKPGKAPKLLIYNAHSLQTGIPSRFSGSGSGADFTLTISSLQPEDFATYFCQQYYSGLTFGSGTKLEIKRTVAAPSVFIFPPSDEQLKSGTASVVCLLNNFYPREAKVQWKVDNALQSGNSQESVTEQDSKDSTYSLSSTLTLSKADYEKHKVYACEVTHQGLSSPVTKSFNRGEC
notes: as for B8
binding result [1]: binds

B2: XENP35151 (bispecific antibody)
heavy: EVQLVESGGGLVKPGGSLRLSCAASGFSFSVGYYMCWVRQAPGKGLEWVSCIYVGSGSSGSTYYASVKGRFTISSDTAKTSVYLQMNSLRAEDTAVYFCARTAGSDWRLDLWGQGTLVTVSSASTKGPSVFPLAPSSKSTSGGTAALGCLVKDYFPEPVTVSWNSGALTSGVHTFPAVLQSSGLYSLSSVVTVPSSSLGTQTYICNVNHKPSDTKVDKKVEPKSCDKTHTCPPCPAPPVAGPSVFLFPPKPKDTLMISRTPEVTCVVVDVKHEDPEVKFNWYVDGVEVHNAKTKPREEEYNSTYRVVSVLTVLHQDWLNGKEYKCKVSNKALPAPIEKTISKAKGQPREPQVYTLPPSREEMTKNQVSLTCDVSGFYPSDIAVEWESDGQPENNYKTTPPVLDSDGSFFLYSKLTVDKSRWEQGDVFSCSVLHEALHSHYTQKSLSLSPGK
scFv-Fc: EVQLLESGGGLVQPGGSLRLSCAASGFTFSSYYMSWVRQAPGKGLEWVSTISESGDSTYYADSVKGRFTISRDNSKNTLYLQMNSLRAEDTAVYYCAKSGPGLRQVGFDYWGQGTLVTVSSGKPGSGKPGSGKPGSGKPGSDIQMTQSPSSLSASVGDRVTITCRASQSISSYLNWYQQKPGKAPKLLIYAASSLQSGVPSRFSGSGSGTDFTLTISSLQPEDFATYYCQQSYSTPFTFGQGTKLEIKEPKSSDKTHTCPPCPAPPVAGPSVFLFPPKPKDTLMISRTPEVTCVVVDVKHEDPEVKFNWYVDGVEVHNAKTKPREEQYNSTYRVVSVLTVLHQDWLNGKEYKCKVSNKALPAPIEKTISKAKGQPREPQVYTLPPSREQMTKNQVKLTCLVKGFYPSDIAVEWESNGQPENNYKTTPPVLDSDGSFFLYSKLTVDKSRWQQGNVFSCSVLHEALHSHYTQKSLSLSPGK
light: DIVMTQSPSSLSASVGDRVTITCRASQSIANELSWYQQKPGKPPKLLIYRASTLTSGVPSRFKGSGSGTDFTLTISSLQPEDFATYYCQSTYNGRAIGFGGGTKVEIKRTVAAPSVFIFPPSDEQLKSGTASVVCLLNNFYPREAKVQWKVDNALQSGNSQESVTEQDSKDSTYSLSSTLTLSKADYEKHKVYACEVTHQGLSSPVTKSFNRGEC
notes: as for B8
binding result [1]: binds

B3: XENP34339 (bispecific antibody)
heavy 1: B4 heavy 1
heavy 2: QVQLVQSGAEVKKPGASVKVSCKASGYIFTNNYMHWVRQAPGQGLEWMGIISPSVGRTAYAQKFQGRVTMTRDTSTSTVYMELSSLRSEDTAVYYCARGGGSSPRLDYWGQGTLVTVSSASTKGPSVFPLAPSSKSTSGGTAALGCLVKDYFPEPVTVSWNSGALTSGVHTFPAVLQSSGLYSLSSVVTVPSSSLGTQTYICNVNHKPSNTKVDKKVEPKSCGKPGSGKPGSQVQLVQSGAEVKKPGASVKVSCKASGYIFTNNYMHWVRQAPGQGLEWMGIISPSVGRTAYAQKFQGRVTMTRDTSTSTVYMELSSLRSEDTAVYYCARGGGSSPRLDYWGQGTLVTVSSASTKGPSVFPLAPSSKSTSGGTAALGCLVKDYFPEPVTVSWNSGALTSGVHTFPAVLQSSGLYSLSSVVTVPSSSLGTQTYICNVNHKPSNTKVDKKVEPKSCDKTHTCPPCPAPPVAGPSVFLFPPKPKDTLMISRTPEVTCVVVDVKHEDPEVKFNWYVDGVEVHNAKTKPREEQYNSTYRVVSVLTVLHQDWLNGKEYKCKVSNKALPAPIEKTISKAKGQPREPQVYTLPPSREQMTKNQVKLTCLVKGFYPSDIAVEWESNGQPENNYKTTPPVLDSDGSFFLYSKLTVDKSRWQQGNVFSCSVMHEALHNHYTQKSLSLSPGK
light: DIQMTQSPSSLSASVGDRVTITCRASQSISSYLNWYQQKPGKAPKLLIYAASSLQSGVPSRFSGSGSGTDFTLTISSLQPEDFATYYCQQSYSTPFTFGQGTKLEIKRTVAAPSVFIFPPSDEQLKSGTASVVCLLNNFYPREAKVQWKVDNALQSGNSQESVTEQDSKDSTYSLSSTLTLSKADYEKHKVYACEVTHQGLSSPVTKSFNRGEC
notes: 2+1 CLC format; also called B7H3 x CD28 bsAb in 2+1 CLC format; copies: 1 + 1 + 3
Kd [2]: 77 nM

B5: XENP35612 (bispecific antibody)
heavy 1: B4 heavy 1 with E53G
heavy 2: B3 heavy 2
light: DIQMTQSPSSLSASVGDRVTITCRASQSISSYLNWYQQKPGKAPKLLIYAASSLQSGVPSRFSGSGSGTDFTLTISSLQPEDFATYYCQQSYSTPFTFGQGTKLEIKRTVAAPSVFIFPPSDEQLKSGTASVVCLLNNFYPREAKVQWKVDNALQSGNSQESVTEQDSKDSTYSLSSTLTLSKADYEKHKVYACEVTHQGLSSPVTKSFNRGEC
notes: 2+1 CLC format; copies: 1 + 1 + 3
Kd [2]: 270 nM

B6: XENP35611 (bispecific antibody)
heavy 1: B4 heavy 1 with Y33A, E53G
heavy 2: B3 heavy 2
light: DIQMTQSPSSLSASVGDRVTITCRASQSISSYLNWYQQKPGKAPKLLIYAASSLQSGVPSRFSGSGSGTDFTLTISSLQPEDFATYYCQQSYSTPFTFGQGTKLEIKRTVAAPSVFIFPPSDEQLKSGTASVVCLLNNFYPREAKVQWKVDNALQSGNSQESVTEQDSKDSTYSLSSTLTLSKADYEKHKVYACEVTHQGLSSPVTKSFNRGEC
notes: as for B5
Kd [2]: 610 nM

B7: XENP34336 (bispecific antibody)
heavy 1: B4 heavy 1
heavy 2: B3 heavy 2 with N32H, V55A, R57S, A59D, N264H, V287A, R289S, A291D
light: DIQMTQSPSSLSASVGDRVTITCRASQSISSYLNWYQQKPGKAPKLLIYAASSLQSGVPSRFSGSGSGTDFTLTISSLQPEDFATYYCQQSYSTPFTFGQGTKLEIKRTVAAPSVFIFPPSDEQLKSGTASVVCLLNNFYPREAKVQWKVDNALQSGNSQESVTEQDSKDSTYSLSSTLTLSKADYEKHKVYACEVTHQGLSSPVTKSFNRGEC
notes: as for B5
Kd [2]: 440 nM

— US20220098306A1 (Xencor, published 2022)
